Laboratory results: patent US20210047398A1, “ASPROSIN, A FAST-INDUCED GLUCOGENIC PROTEIN HORMONE” (Baylor College of Medicine, priority 2016, published 2021)

Columns and labels:
human dermal fibroblasts = assay: Adipogenic differentiation of human dermal fibroblasts; type: cell-based
Procedure: Cell Culture—Human dermal fibroblasts isolated from NPS subjects or WT dermal fibroblasts from unaffected control subjects were subjected to adipogenic differentiation using standard protocols. […] Standard transfection methods with expression plasmids were used for in vitro transgenesis.
RNA and Protein Analysis—Standard RNA extraction procedures (RNeasy Mini Kit from Qiagen) were employed. Reverse transcription was carried out using the Superscript III kit (Invitrogen) using the manufacturer's protocol. For gene expression analysis, QPCR was performed using sequence-specific primers and probes from Roche (Universal Probe Library). TBP was used as an internal control for all gene-expression assays. Western blotting was performed using standard methods on plasma or cell culture media using a mouse monoclonal antibody directed against Asprosin, which was purchased from Abnova (Catalog #H00002200-M01). The mouse monoclonal antibody against fibrillin-1 was purchased from Abcam (Catalog #ab3090). […] At that time, media was concentrated using the Amicon Ultra-2 Centrifugal filter unit before proceeding with western blotting.

[1] = Body composition, plasma parameters, histology, GTT and ITT in WT mice with increased circulating asprosin; type: in vivo
Procedure: Animals—10-week old male WT C57/Bl6 mice were used for all in vivo studies. […] Mice were injected with 2.6 micro molar recombinant His tagged Asprosin or recombinant GFP daily for 10 days via subcutaneous injection. Mice were sacrificed and plasma and various organs were isolated 10 days after viral infusion or peptide injection. The Baylor College of Medicine Institutional Animal Care and Utilization Committee approved all experiments.
Body composition and Serum analyses—Body composition was analyzed with the ECHO-MRI system (Echo medical systems, Texas). Mouse serum was prepared from blood obtained through cardiac puncture and analyzed with the COBAS Integra 400 plus analyzer (Roche). Plasma leptin, FFA, adiponectin and triglyceride levels were measured by using a Mouse Leptin ELISA Kit (Millipore), NEFA C Test Kit (Wako), Mouse Adiponectin ELISA Kit (Millipore) and Serum/plasma triglyceride detection kit (Sigma), respectively.
Histology—Mouse inguinal adipose tissue samples were fixed in 10% formaldehyde for H&E staining. Frozen livers were used for oil-red-O staining to evaluate hepatic triglyceride content.
Blood glucose levels were measured using a glucometer (Life Scan).

[2] = Plasma asprosin, glucose, insulin and hormones in mice after asprosin gain-of-function; type: in vivo
Procedure: Animals. […] MgR heterozygous mice were obtained from Jackson labs, and bred to obtain male MgR homozygous mice and WT littermates. 5-week-old male Ob/Ob mice were obtained from Jackson labs. […] For diet induced obesity studies, mice were placed on the adjusted calories diet providing 60% of calories from fat by Harlan-Teklad for 12 weeks. […] Mice were exposed to 30 μg recombinant His-tagged asprosin or recombinant Green Fluorescent Protein (GFP) daily for 10 days via subcutaneous injection. Mice were sacrificed and plasma and various organs were isolated 10 days after virus or peptide injection. For single dose injections, the same protocol was followed as that for daily injections, followed by collection of plasma at the indicated times via tail bleeds for insulin and glucose measurement. Insulin and glucose tolerance tests (ITT and GTT) were performed using standard procedures. […] For immunologic sequestration experiments, mice were injected intra-peritoneally with a 500 μg dose in saline of a custom-built (Thermo Scientific Inc.) anti-asprosin mouse monoclonal antibody directed against amino acids 106-134 (human profibrillin amino acids 2837-2865) or an equivalent dose of isotype matched IgG (Southern Biotech, Inc.). […] The Baylor College of Medicine Institutional Animal Care and Utilization Committee approved all experiments.
Plasma metabolic parameters. Human plasma insulin was measured using a human insulin ELISA kit by Abcam. Mouse plasma insulin was measured using a mouse insulin ELISA kit by Millipore. Mouse plasma glucagon, epinephrine, norepinephrine and corticosterone were measured by the Vanderbilt University Hormone Assay & Analytical Services Core.

[3] = system: mouse primary hepatocytes
Procedure: Cell Culture. Primary mouse hepatocytes were isolated from 8- to 12-week-old WT mice using standard methodology. […] The cells were treated with 50 nM recombinant asprosin or GFP for 10 minutes for cAMP and PKA assays and for 2 hours for the in vitro glucose production assay. Cells were pretreated with various inhibitors for 1 hour prior to treatment with asprosin, GFP, Glucagon or Epinephrine. cAMP was measured from cell lysates using the cAMP direct immunoassay kit from Cell Biolabs. PKA activity was measured from cell lysates using the PKA kinase activity kit from Enzo Lifesciences, Inc. Media glucose content was measured using the Glucose Colorimetric Assay Kit from Biovision. Results were normalized to protein content.

liver = assay: Liver cAMP level and PKA activity after subcutaneous injection; type: in vivo, mice; details: single 30 μg dose, 20 minutes
From the text: […] Data are represented as the mean±SEM.
Cell Culture. […] Results were normalized to protein content.

hepatocyte surface = assay: Asprosin-biotin conjugate binding to the hepatocyte surface; set-up: species or system mouse; details: 100-fold excess
Procedure: Recombinant asprosin was conjugated with biotin using the Basic Biotinylation Sulfo-NHS Kit from Pierce. […] The cells were washed 3 times with PBS without lysis, followed by addition of streptavidin-HRP. The resulting absorbance was measured colorimetrically and the results were normalized to protein content.

[4] = bacterially-generated version (Romere et al., 2016); cited from earlier work
[5] = both experiments, 10 days, 4-hour fasted
[6] = 2 hours after single 30 μg dose

B1: recombinant asprosin: 146 amino acid E. coli expressed fusion protein: 6 amino acid N-terminal His tag and 140 amino acid wild type asprosin (FBN1 2732-2871) (protein)
chain: HHHHHHSTNETDASNIEDQSETEANVSLASWDVEKTAIFAFNISHVSNKVRILELLPALTTLTNHNRYLIESGNEDGFFKINQKEGISYLHFTKKKPVAGTYSLQISSTPLYKKKELNQLEDKYDKDYLSGELGDNLKMKIQVLLH
Human dermal fibroblasts; polypeptide added to the media of mutant cells (10 ug, 7 days), FIG. 15
  NPS associated fat differentiation and inflammogenic defects: rescued
Human dermal fibroblasts; recombinant asprosin added to culture media (60 nanomolar), 7 days adipogenic induction, FIG. 4G
  adipogenic differentiation in WT cells: promoted adipogenic differentiation
Human dermal fibroblasts; recombinant asprosin added to culture media (60 nanomolar), 7 days, FIG. 4H
  adipogenic defect in NPS mutant cells: sufficient to rescue the adipogenic defect
[1]; 60 minute mark, GFP mice had severe hypoglycemia
  blood glucose in insulin tolerance test: maintained their blood glucose levels
[1]; 10 days, FIGS. 5G-5J
  glucose and insulin tolerance tests: consistent with a diabetogenic effect
[1]; both experiments (FBN1 adenovirus; daily subcutaneous asprosin), 10 days
  fat cell volume, inguinal white fat microscopy: larger fat cell volume
[1]; [5]
  plasma leptin and adiponectin: higher levels
  plasma triglycerides and free fatty acids: lower levels
[1]; fasted mice, 10 days, FIGS. 11A-11D
  plasma glucose and insulin: hyperglycemia and hyperinsulinemia
[1]; ten days of daily subcutaneous injection, vs GFP injection
  fat mass (MRI): significant increase
[1]; ten days of daily subcutaneous injection, same in GFP injected mice
  lean mass (MRI): slight but significant decrease
[2]; 15-20 minutes after single 30 μg dose
  plasma levels of catabolic hormones (glucagon, catecholamines, glucocorticoids): no effect
[2]; 15 minute time-point after single dose, 2-hour fast
  plasma insulin: compensatory hyperinsulinemia
[2]; [6]
  glucose uptake in peripheral organs in glucose- and insulin-tolerance tests: little evidence of altered glucose uptake
  peak glucose levels in glucose- and insulin-tolerance tests: altered peak glucose levels
[2]; 10 days of exposure, 2-hour fasted mice
  glucose and insulin levels: elevated
[2]; single 30 μg subcutaneous dose, 2-hour preceding fast
  blood glucose levels after a single dose: immediate spike
[2]; single dose, 2-hour fast
  time to normalized blood glucose levels post injection: ≤ 60 min
[2]; single dose, overnight preceding fast, otherwise similar results
  rate of the blood glucose spike: somewhat slower
[2]; single subcutaneous administration, overnight fasted MgR mice
  insulin deficit of MgR mice: sufficient to completely rescue the insulin deficit
[3]
  hepatocyte PKA activity, dose response: increased in a dose responsive manner
liver
  liver cAMP and protein kinase A activity: sufficient to increase liver cAMP and protein kinase A activity
Hepatocyte surface
  competition of asprosin-biotin binding: abolished the effect
[4]
  plasma half-life: ~20 min
